Test results: the supplement of paper PMC10567573

B1: PLD5 (parent)
chain: KRTYWPDLDAKIREALVLRSVRVR
B2: SNAP91 (parent)
chain: FATASAAVPVSTSKPSSDLLDLQP

Variants of: B1
Experiment: protein stability index of a GFP-peptide fusion (GPS, HEK-293T) (PSI 1-6); higher = more stable
Conditions: c terminus: a fixed tail appended
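Note: lentivirally expressed fusions sorted by FACS into six bins by GFP to DsRed ratio, PSI derived from sequencing read proportions per bin multiplied by bin number.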

Protein stability index: each site, then its substitutions
R24: D 2.27 | P 2.01 | M 1.68 | C 2.52 | Q 3.34 | A 1.53 | L 1.77 | I 2.32 | K 1.08 | F 2.13 | H 1.74 | N 1.62 | E 1.94 | T 1.52 | Y 2.74 | S 1.97
V21: S 2.09 | T 1.91 | I 1.66 | K 2.75 | N 2.48 | Q 2 | F 3.54 | H 2.11 | R 2.4 | M 2.51 | G 2.4 | Y 2.68
R22: H 1.51 | E 2.02 | G 1.65 | V 2.14 | D 2.31 | K 1.99 | S 2.14 | L 1.4 | T 1.59 | A 1.45 | P 1.65 | Y 1.61 | C 2.32
V23: Q 2.12 | C 1.61 | H 2.1 | I 1.96 | W 1.78 | T 1.88 | M 3.02 | K 1.99 | N 2.54 | Y 1.74 | P 3.22 | E 1.64 | D 2.35 | A 1.93 | F 1.9 | L 1.03

Variants of: B2
Experiment: as above
Conditions: c terminus: a fixed tail appended

Protein stability index, by site and new letter:
T3: A 2.8 | G 2.65 | N 3.24 | E 4.26 | D 3.8 | V 4.38 | I 2.81 | M 3.16 | W 1.64 | H 3.71 | C 3.45 | L 3.35 | S 3.39 | K 3.22 | Q 4.15 | Y 1.98 | F 2.15 | P 2.41
A4: K 3.8 | M 3.31 | L 2.89 | D 4.72 | P 4.19 | Y 3.73 | F 2.06 | E 4.57 | Q 3.9 | T 3.72 | H 4.06 | I 3.04 | N 3.81 | C 2.66 | G 3.63 | S 3.8 | V 3.9 | R 3.16 | W 1.64
F1: D 5.71 | G 4.89 | Q 5.06 | M 4.67 | S 4.99 | I 4.5 | V 4.54 | C 4.64 | R 4.99 | E 5.69 | T 4.91 | L 4.62 | P 4.84 | A 4.84 | Y 3.8 | H 5.52 | K 4.92 | N 4.53
S5: P 3.54 | D 4.17 | E 4.02 | C 3.02 | R 3.45 | V 3.21 | I 2.8 | T 3.73 | H 3.33 | Q 3.38 | W 3.73 | N 3.66 | F 1.45 | Y 1.67 | G 3.54 | A 3.46 | K 4.11 | L 2.28 | M 2.83
A6: G 3.5 | M 2.92 | I 2.41 | N 4.69 | H 3.19 | E 4.31 | V 2.98 | P 3.54 | S 3.78 | D 4.22 | C 2.46 | Q 3.67 | T 3.5 | F 2.31 | K 4.23 | L 2.47 | R 3.31
A2: N 3.85 | Q 4.11 | W 2.96 | G 4.09 | T 3.18 | Y 3.77 | K 3.99 | I 2.2 | C 3.09 | M 3.79 | D 5 | P 4.27 | E 4.5 | H 2.71 | F 3.21 | R 3.46 | S 4.01 | L 3.75 | V 1.65
